These results are taken from article PMC7578760 (iScience, 2020).

This data set deals with the molecule itself. The data set is described as follows: crystal structure.

B1: 14-3-3θ protein (natural protein)
chain: EKTELIQKAKLAEQAERYDDMATCMKAVTEQGAELSNEERNLLSVAYKNVVGGRRSAWRVISSIEQKTDTSDKKLQLIKDYREKVESELRSICTTVLELLDKYLIANATNPESKVFYLKMKGDYFRYLAEVACGDDRKQTIDNSQGAYQEAFDISKKEMQPTHPIRLGLALNFSVFYYEILNNPELACTLAKTAFDEAIAELDTLNEDSYKDSTLIMQLLRDNLTLWTSDSAG
With B1, the “stoichiometry N” value was determined as 2.

The stoichiometry N is the number of molecules, sites or subunits per partner or assembly.
